# Measured values taken from article doi:10.1101/2020.05.11.088153.
# Several values for one entry are separate records, joined by “and”; a condition that tells them apart may be missing. Equal entries are not always repeated.
# Experiments:
# [1] = target: βPFO_(Aβ(1-42)) tetramer (membrane-associated β-sheet pore forming tetramer of Aβ(1-42)) (UniProt P05067); assay: SEC
# [2] = target: βPFO_(Aβ(1-42)) tetramer (membrane-associated β-sheet pore forming tetramer of Aβ(1-42)) (UniProt P05067); assay: native MS
# [3] = target: βPFO_(Aβ(1-42)) tetramer (membrane-associated β-sheet pore forming tetramer of Aβ(1-42)) (UniProt P05067); assay: ITC
substance,measurement,setting,value
somatostatin-14 (from UniProt P61278 103-116) (peptide),increase of the area under the tetramer peak,[1],20%
same,stoichiometry N,[2],1 and 2
same,Kd,[3],23 µM
same,stoichiometry N,[3],2
